T1: Rnd1 GTPase (residues 5-200), loaded with GMPPNP (UniProt Q92730 5-200)
T1 sequence (looked up): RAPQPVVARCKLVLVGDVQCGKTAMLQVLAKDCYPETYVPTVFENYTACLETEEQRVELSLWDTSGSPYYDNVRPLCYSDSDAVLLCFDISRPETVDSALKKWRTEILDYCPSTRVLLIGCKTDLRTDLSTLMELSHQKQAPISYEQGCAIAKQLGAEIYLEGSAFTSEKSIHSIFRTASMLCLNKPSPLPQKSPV

T2: Rnd2 GTPase (residues 1-227), loaded with GMPPNP (UniProt P52198 1-227)
T2 sequence (looked up): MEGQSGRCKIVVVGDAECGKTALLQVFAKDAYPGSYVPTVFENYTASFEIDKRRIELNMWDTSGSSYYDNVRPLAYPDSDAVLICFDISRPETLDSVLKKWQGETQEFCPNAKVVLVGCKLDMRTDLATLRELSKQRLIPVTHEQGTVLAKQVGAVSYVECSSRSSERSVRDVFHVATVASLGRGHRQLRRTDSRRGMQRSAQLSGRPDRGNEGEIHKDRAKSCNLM

T3: Rnd1 GTPase Y114F (UniProt Q92730 5-200, Y114F)
T3 sequence (looked up): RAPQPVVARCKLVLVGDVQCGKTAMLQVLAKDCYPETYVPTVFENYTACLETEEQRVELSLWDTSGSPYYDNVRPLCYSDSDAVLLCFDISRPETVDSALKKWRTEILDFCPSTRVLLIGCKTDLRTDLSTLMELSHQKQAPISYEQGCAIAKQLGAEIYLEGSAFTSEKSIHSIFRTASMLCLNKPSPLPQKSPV


Tests used:
[1] = target: Rnd1 GTPase, wild type, construct of this paper (UniProt Q92730); assay: Isothermal titration calorimetry; settings: pH 7.0, 25 °C, 50 mM NaCl, 4 mM MgCl2, 50 mM phosphate buffer
Chain of Rnd1 GTPase, wild type, construct of this paper (Q92730 whole entry, the tested form may be a part): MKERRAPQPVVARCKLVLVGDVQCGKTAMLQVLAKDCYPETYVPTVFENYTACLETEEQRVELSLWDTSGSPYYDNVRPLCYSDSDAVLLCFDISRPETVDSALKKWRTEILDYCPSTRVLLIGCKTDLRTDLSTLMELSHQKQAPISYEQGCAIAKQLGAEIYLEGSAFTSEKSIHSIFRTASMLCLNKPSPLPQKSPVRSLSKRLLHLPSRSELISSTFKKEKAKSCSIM

[2] = target: Rnd1 GTPase (residues 5-200), loaded with GMPPNP (UniProt Q92730); assay: ITC + SPR
[3] = target: Rnd2 GTPase (residues 1-227), loaded with GMPPNP (UniProt P52198); assay: ITC + SPR
[4] = target: Rnd1 GTPase as used in the quoted work (ref 39, Hota & Buck 2009) (UniProt Q92730); assay: Not stated in this article; settings: cited from earlier work
Chain of Rnd1 GTPase as used in the quoted work (ref 39, Hota & Buck 2009) (Q92730 whole entry, the tested form may be a part): as above

[5] = target: T1, Rnd1 GTPase (residues 5-200), loaded …; assay: ITC
[6] = target: T2, Rnd2 GTPase (residues 1-227), loaded …; assay: ITC
SEC = target: the molecule itself; assay: SEC
Rnd1 GTPase Y114F = target: T3, Rnd1 GTPase Y114F; assay: ITC

Ka [5] | Kd [5] | dH [5] | Ka [6] | Kd [6] | dH [6] | Molecule | also measured
– | – | – | – | – | – | Plexin-B1 Rho GTPase binding domain (RBD), wild type, construct of this paper | Ka [1]: 1.8 10^5 M^-1; Kd [1]: 5.5 µM; ΔG [1]: -7.1 kcal/mol
– | – | – | – | – | – | plexin-C1 Rho GTPase binding domain (RBD), residues 1198-1305 (from UniProt O60486 1198-1305) (domain or fragment) | Kd [2]: > 50 µM; Kd [3]: > 50 µM
– | – | – | – | – | – | Plexin-B1 RBD as used in the quoted work (ref 39, Hota & Buck 2009) | Kd ([4]; pH 6.4): ∼3.1 μM; Kd ([4]; pH 6.8): ∼5.5 μM
190000 M⁻¹ | 5.2 µM | -3.1 kcal/mol | 70000 M⁻¹ | 14.2 µM | -1.6 kcal/mol | plexin-D1 RBD Y1618L (domain or fragment) AKPRNLNVSFQGCGMDSLSVRAMDTDTLTQVKEKILEAFCKNVPYSQWPRAEDVDLEWFASSTQSLILRDLDDTSVVEDGRKKLNTLAHYKIPEGASLAMSLIDKKDNTLGRVKDLDTEKYFHLVL | –
– | – | – | 60000 M⁻¹ | 16.6 µM | -0.4 kcal/mol | plexin-D1 Rho GTPase binding domain (RBD), residues 1553-1678 (domain or fragment, human, UniProt Q9Y4D7 1553-1678, looked up) AKPRNLNVSFQGCGMDSLSVRAMDTDTLTQVKEKILEAFCKNVPYSQWPRAEDVDLEWFASSTQSYILRDLDDTSVVEDGRKKLNTLAHYKIPEGASLAMSLIDKKDNTLGRVKDLDTEKYFHLVL | –
50000 M⁻¹ | 20 µM | 1.3 kcal/mol | 130000 M⁻¹ | 7.7 µM | -1.4 kcal/mol | plexin-D1 RBD S1614V/T1615A (domain or fragment) AKPRNLNVSFQGCGMDSLSVRAMDTDTLTQVKEKILEAFCKNVPYSQWPRAEDVDLEWFASVAQSYILRDLDDTSVVEDGRKKLNTLAHYKIPEGASLAMSLIDKKDNTLGRVKDLDTEKYFHLVL | –
140000 M⁻¹ | 7 µM | -8 kcal/mol | 90000 M⁻¹ | 10.7 µM | -1.2 kcal/mol | plexin-A2 Rho GTPase binding domain (RBD), residues 1490-1600 (domain or fragment, human, UniProt O75051 1490-1600, looked up) LIRQQIEYKTLILNCVNPDNENSPEIPVKVLNCDTITQVKEKILDAVYKNVPYSQRPRAVDMDLEWRQGRIARVVLQDEDITTKIEGDWKRLNTLMHYQVSDRSVVALVPK | stoichiometry N (SEC): 2; Ka (Rnd1 GTPase Y114F): 100000 M⁻¹; Kd (Rnd1 GTPase Y114F): 10 µM; dH (Rnd1 GTPase Y114F): -4.1 kcal/mol
180000 M⁻¹ | 5.5 µM | -6.7 kcal/mol | 40000 M⁻¹ | > 20 µM | -0.2 kcal/mol | plexin-B1 Rho GTPase binding domain (RBD), residues 1746-1852 (domain or fragment, human, UniProt O43157 1746-1852, looked up) YRPLTLNALLAVGPGAGEAQGVPVKVLDCDTISQAKEKMLDQLYKGVPLTQRPDPRTLDVEWRSGVAGHLILSDEDVTSEVQGLWRRLNTLQHYKVPDGATVALVPC | Ka (Rnd1 GTPase Y114F): 180000 M⁻¹; Kd (Rnd1 GTPase Y114F): 5.5 µM; dH (Rnd1 GTPase Y114F): -2.5 kcal/mol
70000 M⁻¹ | 14.1 µM | -1.4 kcal/mol | 90000 M⁻¹ | 9.8 µM | -1.6 kcal/mol | plexin-B1 RBD L1815Y (domain or fragment) YRPLTLNALLAVGPGAGEAQGVPVKVLDCDTISQAKEKMLDQLYKGVPLTQRPDPRTLDVEWRSGVAGHYILSDEDVTSEVQGLWRRLNTLQHYKVPDGATVALVPC | –
– | – | – | 80000 M⁻¹ | 20 µM | -3.2 kcal/mol | plexin-B1 RBD L1815K (domain or fragment) YRPLTLNALLAVGPGAGEAQGVPVKVLDCDTISQAKEKMLDQLYKGVPLTQRPDPRTLDVEWRSGVAGHKILSDEDVTSEVQGLWRRLNTLQHYKVPDGATVALVPC | –
100000 M⁻¹ | 10 µM | -1.9 kcal/mol | 90000 M⁻¹ | 11.1 µM | -0.6 kcal/mol | plexin-C1 RBD K1267L (domain or fragment) TVALNVVFEKIPENESADVCRNISVNVLDCDTIGQAKEKIFQAFLSKNGSPYGLQLNEIGLELQMGTRQLELLDIDSSSVILEDGITKLNTIGHYEISNGSTIKVFKK | –
360000 M⁻¹ | 2.6 µM | -3.4 kcal/mol | 120000 M⁻¹ | 8.3 µM | -1.5 kcal/mol | plexin-C1 RBD T1264V/R1265V (domain or fragment) TVALNVVFEKIPENESADVCRNISVNVLDCDTIGQAKEKIFQAFLSKNGSPYGLQLNEIGLELQMGVVQKELLDIDSSSVILEDGITKLNTIGHYEISNGSTIKVFKK | –
